Source: paper PMC7987009 (bioRxiv, 2021)

What was measured:
[1] = target: SARS-CoV-2 spike HexaPro (S), prefusion-stabilized trimer (SARS-CoV-2, Wuhan-Hu-1, HexaPro design, stabilised); assay: cell-based or functional assay
[2] = target: SARS-CoV-2 spike receptor-binding domain (RBD), wild type (SARS-CoV-2, Wuhan-Hu-1 (wild type), UniProt P0DTC2); assay: ELISA

B1: Nb17 (VHH)
VHH: HVQLVESGGGLVQAGGSLRLSCAASGSIFSSNAMSWYRQAPGKQRELVASITSGGNADYADSVKGRFTISRDKNTVYPEMSSLKPADTAVYYCHAVGQEASAYAPRAYWGQGTQVTVSS
IC50 of neutralisation of the virus in vitro [1]: ~25 ng/mL

B2: Nb34 (VHH)
VHH: DVQLVESGGGLVQAGGSLRLSCAASGFTFSNYVMYWGRQAPGKGREWVSGIDSDGSDTAYASSVKGRFTISRDNAKNTLYLQMNNLKPEDTALYYCVKSKDPYGSPWTRSEFDDYWGQGTQVTVSS
binding result [2]: binds

B3: Nb105 (VHH)
VHH: HVQLVESGGGLVQAGGSLRLSCAVSGRTFSTYGMAWFRQAPGKERDFVATITRSGETTLYADSVKGRFTISRDNAKNTVYLQMNSLKIEDTAVYYCAVRRDSSWGYSRDLFEYDYWGQGTQVTVSS
binding result [2]: binds

B4: Nb20 (VHH)
VHH: QVQLVESGGGLVQAGGSLRLSCAVSGAGAHRVGWFRRAPGKEREFVAAIGASGGMTNYLDSVKGRFTISRDNAKNTIYLQMNSLKPQDTAVYYCAARDIETAEYIYWGQGTQVTVSS
binding result [2]: binds
